For the assay, the target named is T1, His-LCK (human, UniProt P06239 1-509).
T1 construct: Lymphocyte-specific protein tyrosine kinase (LCK), human, full length; Cloned into pET-32a (BamHI/XhoI); also called Recombinant His-tagged LCK
As to the kind of experiment: pull-down; MBP fusion proteins bound to amylose resin, His-LCK incubated with 50 μL beads in 20 mM HEPES pH 7.4, 0.5% NP-40, 100 mM NaCl for 2 h at 4 °C; eluted with 10 mM maltose; immunoblot with anti-His-Tag and anti-MBP. Particulars: both partners purified. (In general: In western blotting, separated proteins are transferred to a membrane and probed.)

The source of these data is article PMC3796550, “Phosphorylation of FOXP3 by LCK Downregulates MMP9 Expression and Represses Cell Invasion” (PLoS ONE, 2013).

T1 sequence (P06239 whole entry): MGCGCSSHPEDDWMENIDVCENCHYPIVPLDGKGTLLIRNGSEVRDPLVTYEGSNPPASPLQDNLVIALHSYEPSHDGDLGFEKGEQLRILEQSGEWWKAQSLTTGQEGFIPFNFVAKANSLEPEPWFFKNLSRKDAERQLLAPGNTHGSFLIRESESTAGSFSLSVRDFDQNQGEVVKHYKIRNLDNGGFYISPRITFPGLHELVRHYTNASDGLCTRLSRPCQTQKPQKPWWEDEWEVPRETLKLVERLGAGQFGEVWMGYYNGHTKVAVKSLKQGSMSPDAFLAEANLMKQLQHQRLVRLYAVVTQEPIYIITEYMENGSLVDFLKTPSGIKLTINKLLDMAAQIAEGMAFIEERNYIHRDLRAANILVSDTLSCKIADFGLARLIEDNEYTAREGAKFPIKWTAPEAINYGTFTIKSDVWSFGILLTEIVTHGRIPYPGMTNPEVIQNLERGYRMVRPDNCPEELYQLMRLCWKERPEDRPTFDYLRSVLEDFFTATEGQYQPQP

B1: MBP-FOXP3 ΔFKH (domain or fragment, human, UniProt Q9BZS1 1-332, looked up)
chain: MPNPRPGKPSAPSLALGPSPGASPSWRAAPKASDLLGARGPGGTFQGRDLRGGAHASSSSLNPMPPSQLQLPTLPLVMVAPSGARLGPLPHLQALLQDRPHFMHQLSTVDAHARTPVLQVHPLESPAMISLTPPTTATGVFSLKARPGLPPGINVASLEWVSREPALLCTFPNPSAPRKDSTLSAVPQSSYPLLANGVCKWPGCEKVFEEPEDFLKHCQADHLLDEKGRAQCLLQREMVQSLEQQLVLEKEKLSAMQAHLAGKMALTKASSVASSDKGSCCIVAAGSQGPVVPAWSGPREAPDSLFAVRRHLWGSHGNSTFPEFLHNMDYFK
notes: Forkhead box P3 (FOXP3), human, fragment with a truncated forkhead domain, amino acids 1-332; Cloned into pMAL-c2; this vector is known to place MBP at the N-terminus (surmised)
As for B1, the binding result was “binds”.

B2: MBP-FOXP3-Full (natural protein, human, UniProt Q9BZS1 1-431, looked up)
chain: MPNPRPGKPSAPSLALGPSPGASPSWRAAPKASDLLGARGPGGTFQGRDLRGGAHASSSSLNPMPPSQLQLPTLPLVMVAPSGARLGPLPHLQALLQDRPHFMHQLSTVDAHARTPVLQVHPLESPAMISLTPPTTATGVFSLKARPGLPPGINVASLEWVSREPALLCTFPNPSAPRKDSTLSAVPQSSYPLLANGVCKWPGCEKVFEEPEDFLKHCQADHLLDEKGRAQCLLQREMVQSLEQQLVLEKEKLSAMQAHLAGKMALTKASSVASSDKGSCCIVAAGSQGPVVPAWSGPREAPDSLFAVRRHLWGSHGNSTFPEFLHNMDYFKFHNMRPPFTYATLIRWAILEAPEKQRTLNEIYHWFTRMFAFFRNHPATWKNAIRHNLSLHKCFVRVESEKGAVWTVDELEFRKKRSQRPSRCSNPTPGP
notes: Forkhead box P3 (FOXP3), human, full length, amino acids 1-431; Cloned into pMAL-c2 (BamHI/SalI); also called MBP-FOXP3 WT
Regarding B2, the binding result was “binds”.
